In the supplement of paper PMC9170038:

Tested on: K4 kissing-loop RNA reporter
Test: apparent KD of K4 kissing-loop reporter; higher = weaker reporter binding
Conditions: Eterna round: R107
Protocol: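 RNA-MaP round R107: designed RNA switches with theophylline, tryptophan, arginine or FMN aptamers are transcribed on-chip within common flanks. They are titrated with a labelled K4 kissing-loop RNA reporter in RNA-MaP buffer (100 mM Tris pH 7.5, 80 mM KCl, 4 mM MgCl2), without ligand or with the indicated ligand. Median apparent KD per design.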

[1] = input ligand: theophylline 20 uM
[2] = input ligand: tryptophan 2.4 mM
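Further: bound reporter read as fluorescence of individual clusters on recovered sequencing chips by microscopy, with normalized cluster intensities fitted with a binding model.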

| Sequence | apparent KD of K4 kissing-loop reporter (input ligand: FMN 200 uM) [nM] | apparent KD of K4 kissing-loop reporter (input ligand: arginine 13.2 mM) [nM] | apparent KD of K4 kissing-loop reporter (input ligand: none) [nM] | apparent KD of K4 kissing-loop reporter [1] [nM] | apparent KD of K4 kissing-loop reporter [2] [nM] |
| --- | --- | --- | --- | --- | --- |
| AAAAUAAAGGAGUGAUGUUCCAUAUGUGAUACCAGCCACGAAAGUGGCCCUUGGCAGCACUGCCAAGUGGACGAAAACGUCCACA [#OpenEnded 5 #StaticStem #K4Early] | 125 | 162 | 141 | 160 | 113 |
| AAAAUAAAUAGCAGUCACGGAGUGAUGUUCCGAGGACCGGUACGGCCGCCACUCGACCAGACAAAGUCUGGAUGGCGAGACUGCA [#SwitchBubble 19 #K4Early] | 200 | 290 | 342 | 392 | 340 |
| AAAAUAAAUAGCAGUCACGGAGUGAUGUUCCGAGGACCGGUACGGCCGCCACUCGACCAUCAUAAGAUGGAAUGGCGAGACUGCA [#SwitchBubble 21 #K4Early] | 134 | 135 | 137 | 138 | 354 |
| AAAAUAAUCCAGUGAUGUUGGUAUCCAGAUACCAGCCACGAAAGUGGCCCUUGGCAGCUGUGGACGUACAAAAUAAGUACGUCCU [#OpenEnded 8 #StaticStem #K4Early] | 534 | 293 | 729 | 790 | 651 |
| AAACAACGUGACGAUACCAGCUUACUCGGCAAGCCAGUGAUGUUGGUGAAAAGGAGUCAAAGCCCUUGGCAGCGUCGAAGGUUUG [Leteon] | 310 | 268 | 334 | 138 | 268 |
| AAACAGCACUGGGAGUGAUGUUCUCAGUGACGAGGACCGGUACGGCCGCCACUCGCGAGAGAACUAGUCUAGACUUGACUGCAUA [Excl Tryptophan A V15] | 181 | 138 | 145 | 149 | 205 |
| AAACAUAAGUCUGAUACCAGCCUGGGAGAAGUGAUGUUUCUCGGUGCAUAACGCCUAUAAGGCCCUUGGCAGCAGCAUGCGCUUC [theeternabot_sameState_KL_Theo_B_10] | 547 | 485 | 569 | 471 | 516 |
| AAACAUCACUGGGAGUGAUGUUCUCAGUGACGAGGACCGGUACGGCCGCCACUCGCGAGAGAUAUAAUUAAGUAAUGACAUCAUU [Excl Tryptophan A V6] | 260 | 267 | 274 | 341 | 327 |
| AAACAUUGGUCGGAUACCAGUUAGACCGAUAAGGUCAAAACUGGAGUGAUGUUCCCAAAUAACCCUUGGCAGCCGACCGAUGAAA [MAT - Same State Theophlline B - Mod of Eli - D11] | 193 | 121 | 167 | 205 | 221 |
| AAAGAAGUAUACUUCAAGAGGUAUGCUGAUACCAGAGUCAAUUGACUCCCUUGGCAGCGGAUCGAGUGAUGUUCGUAACCUCAAA [AK3 SS Theophylline A] | 118 | 178 | 153 | 192 | 117 |
| AAAGACUGACUGCAAUUAGCAGUCAGUCAACGAGGACCGGUACGGCCGCCACUCGGGUCCUAGAGUGAUGUUCUAAUAAUAUAAU [Default title] | 279 | 367 | 432 | 466 | 167 |
| AAAUAAAGCAGUCAGCCAGUGAUGUUGGAAGGAGCGUGCGAAAGCACAGGUAGGUCGCCAAAACCUAAUACUGGCUGCUAAAUAA [#SwitchBubble 1 #K4Early] | 979 | 643 | 773 | 753 | 542 |
| AAAUAACAGGCAGGAUAUGCUUAGUAAUAAGGCCAUAUAUACGUAUAGAGUGAUGUUUUGUACAAAGCAGAAGGGCUAAAUCCAU [FMN B Excl V1] | 154 | 151 | 160 | 105 | 167 |
| AAAUCGUUCAGAAGGAGCGUGGAUUAUUCUUAAAUAUUUAUUACGAGUGAUGUUCGUAAUUCACAGGUAGGUCGCUGAUCGAUAA [JR_ExcArginiB_Sub003] | 102 | 137 | 106 | 121 | 105 |
| AAAUUCUUUUUUUUAUAUAACGAUUCAGAAGGAGCGAGGUAGAACUCAGGUAGGUCGCUGAAUAUAAGACUAGUGAUGUUAGUAA [#01 K4 Arginine A Same State] | 175 | 193 | 224 | 238 | 156 |
| AAAUUGUUUAGAGGAUAUUCUUUAUUCGACAUAACCUUCUAUAAGGUGCAGUGAUGUUGCAAUAUAGGAGAAGGCUGAGCGAUAA [Exclusion FMN B Gf 14] | 311 | 177 | 217 | 196 | 178 |
| AACACUCUGGGAGUGAUGUUCUCAAAUAACCGAGGACCGGUACGGCCGCCACUCGGAAAAGAGUGAGUCCUACGAAAAGUAGGAC [Omei inspired 3] | 225 | 258 | 235 | 264 | 152 |
| AACGCUCAAUAGAGAGUGAUGUUCUCUAUACGAGGACCGGUACGGCCGCCACUCGAAUGUAUAGCGAAACGCUAUACACAGUGGU [Tryp A SS t2] | 155 | 147 | 152 | 146 | 150 |
| AACGCUGCCUGAGGAUAUAGAAACGAGUGAUGUUCGUGGAACGAGACCAGUGAUGUUGGCCUAUUUCUAGAAGGCAGGCAACCGC [Exclusion FMN B GF 1] | 155 | 121 | 148 | 123 | 125 |
| AACUCUCAGACACUUGAGUGAUGUUCGGGCCGAGGACCGGUACGGCCGCCACUCGGGUCUGAGAGAGGUUAUCAAAGAUAGCCAA [Omei KL Tryp A SS A v9] | 303 | 87.3 | 153 | 141 | 164 |
| AACUCUCAGACAUCUGAGUGAUGUUCAGGCCGAGGACCGGUACGGCCGCCACUCGGGUCUGAGAGAGGUUAUCAAAGAUAGCCAA [Omei KL Tryp A SS A v4] | 570 | 356 | 468 | 390 | 540 |

| Sequence | apparent KD of K4 kissing-loop reporter (input ligand: FMN 200 uM) [nM] | apparent KD of K4 kissing-loop reporter (input ligand: arginine 13.2 mM) [nM] | apparent KD of K4 kissing-loop reporter (input ligand: none) [nM] | apparent KD of K4 kissing-loop reporter [1] [nM] | apparent KD of K4 kissing-loop reporter [2] [nM] |
| --- | --- | --- | --- | --- | --- |
| AACUCUCAGAUACUUGAGUGAUGUUCAGGCCGAGGACCGGUACGGCCGCCACUCGGGUCUGAGAGAGGUUAUCAAAGAUAGCCAA [Omei KL Tryp A SS A v10] | 266 | 197 | 257 | 329 | 236 |
| AACUCUCAGGCACCUGAGUGAUGUUCAGGCCGAGGACCGGUACGGCCGCCACUCGGGCCUGAGAGAGGUUAUCAAAGAUAGCCAA [Omei KL Tryp A SS A v2] | 561 | 366 | 528 | 277 | 449 |
| AACUGUUGGGAAGGAUAUUAUGGUGGCUAAAUCCAGUGAUGUUGGAAAUCGGUACUCGCCCACCUUUAAGAAGGUCCGUGAAAGA [theeternabot_sameState_KL_FMN_B_6] | 152 | 164 | 151 | 199 | 130 |
| AAGAGUUGACGAAAAGUCAACUCACGAGAAGGAGCGCACGAAAGUGCAGGUAGGUCGCUCAGUCCAGUGAUGUUGGAACAUAAAA [#OpenEnded 7] | 66.2 | 114 | 96.1 | 110 | 73.3 |
| AAGCAGUCCCUUGUUGUCAUCGAAGAUGAACGAGGACCGGUACGGCCGCCACUCGGAGUGAUGUUCCGAUGGCUGCAAAAUAAAA [MatMod 21 - Jieux - Exclusion - Tryptophan A] | 101 | 96.7 | 105 | 101 | 108 |
| AAGCCAGUGAUGUUGGCAAAAUAAACUGAAGGAGCGCGUGAAAACGCAGGUAGGUCGCAGAACCUUGCCAACUAACACGAAAGUG [Ex Arginine A K4 19] | 268 | 246 | 305 | 387 | 287 |
| AAGCCGGUUGCGGCCGCCACUUUUGCGGACCCGGUGCAGUGAUGUUGCGCAUCGCGGGUUGCUUAAAGGACCGGGCACCUCUAAC [theeternabot_sameState_KL_Trp_B_7] | 418 | 359 | 401 | 363 | 327 |
| AAGCUCAGCGUGACUCGAUAAGAGUCACAACGAGGACCGGUACGGCCGCCACUCGAAAUAAGAGAGUGAUGUUCUCGCUGAGCAA [#SwitchBubble 6 #StaticStem #K4Late] | 631 | 344 | 620 | 824 | 548 |
| AAGGCCACGAGAAGGAGCGUGCUAUGGAGUGAUGUUCCAAUGUAGACCUAAGGUCUACAAGCACAGGUAGGUCGCUCGUGGUCAA [Omei KL Arginine B SS A v2] | 102 | 96.9 | 109 | 100 | 103 |
| AAGGCCGCGCGGUGAUGUUUCAUCGCCGCCCGAGGACCGGUACGGCCGCCACUCGGAUAUAUCGCAGUGAUGUUGCUCUAUAUCA [Exclusion - Tryptophan A] | 160 | 151 | 155 | 167 | 203 |
| AAGGUCACUGCUACAGUGAUGUUGUGGGAGCAGGAUAUGCUGAAAAGCAGAAGGGCUCGCUCCAGGUGACCGAAUGAAACAUUCA [whbob_SS_FMNA__2th176] | 1140 | 718 | 1290 | 792 | 1110 |
| AAUAAAAUCACGGCCGCCACUGAAUUAUUGGUAAGUAGUGAUGUUACUUUACAUAUCUAAUUUAACAGGACCGGGUGAAUAUUUA [#17 K4 Tryptophan B Exclusion] | 130 | 93.4 | 113 | 96.6 | 131 |
| AAUAAUAAUAAAUAUAGAUUGAUGAGGAAACGAGGACCGGUACGGCCGCCACUCGAGUGAUGUUCGAGAACCUCAUCAAUCAUAA [AK4.7 Exc Tryptophan A] | 171 | 132 | 166 | 154 | 382 |
| AAUACCUGAGUGAUGUUCAGGGAAUCAGAAGGAGCGUCAAUUAUGACAGGUAGGUCGCUGAAGACAUGUGUGUAUACACAUGUCC [#04 K4 Arginine A Same State] | 259 | 198 | 234 | 275 | 200 |
| AAUAGGGAUAGUGAUGUUAUCCCUUAUGAUACCAGUGCCAUCGGACACCCUUGGCAGCAUACGGGCAGUGAUGUUGUCCUUGGUG [Exclusion Theophylline A GF 16] | 106 | 94 | 101 | 94.8 | 93.8 |
| AAUCAAUACAGAAGGAGCGUGACAUUUGCUAUUGUAAUUUUAGCUAGUGAUGUUAGCAUUUCACAGGUAGGUCGCUGUACAUUUA [JR_SSArginiB_Sub010] | 275 | 324 | 354 | 415 | 259 |
| AAUGAGGACACUUGCAACAGUCCUCGAAUACGAGGACCGGUACGGCCGCCACUCGAUAACUUGCAGUGAUGUUGCAAGUAAGAAU [(T)''-(K)'-(T)'-(T1)-(T2)-(K1)-(K2)_Design2] | 227 | 201 | 207 | 258 | 311 |
| AAUUCUCUUUUUGAUACCAGCGAAUCUGAGUGAUGUUCUAAGCCAUACAAUUGAGUAAAUCGCCCUUGGCAGCAAUUCGUGGGUG [theeternabot_exclusion_KL_Theo_B_20] | 898 | 681 | 724 | 921 | 567 |
| AAUUUAUGAUCUGAUACCAGACUUUAUCUUGUUUAUAAGUCAAGUGAUGUUUGACUAUUAGUCCCUUGGCAGCAGUAUUGUUUAA [#17 K4 Theophylline B Same State] | 243 | 268 | 290 | 208 | 239 |
| ACCAUCAAAGAUGGCCAGGACUCAACUGAUACCAGAGUGGAGACACUCCCUUGGCAGCAGGUGAGUGAUGUUCACGAGUCCUGGA [Omel KL Theo A SS B v9] | 1000 | 801 | 1140 | 599 | 740 |
